# T1: human PRLR (Biacore antigen) (human, UniProt P16471 25-234, limits assumed)
# T1 construct: The construct injected over captured antibody is not described (a soluble form is likely); also called huPRLR
# T1 sequence: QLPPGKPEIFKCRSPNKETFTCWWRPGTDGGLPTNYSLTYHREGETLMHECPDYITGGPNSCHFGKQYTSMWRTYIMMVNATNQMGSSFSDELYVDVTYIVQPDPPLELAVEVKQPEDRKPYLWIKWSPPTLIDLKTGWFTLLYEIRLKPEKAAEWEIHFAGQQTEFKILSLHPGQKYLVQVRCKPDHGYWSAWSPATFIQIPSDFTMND
# T2: rat PRLR on Nb2-11 rat lymphoma cells (rat, UniProt P05710 20-610)
# T2 sequence (looked up): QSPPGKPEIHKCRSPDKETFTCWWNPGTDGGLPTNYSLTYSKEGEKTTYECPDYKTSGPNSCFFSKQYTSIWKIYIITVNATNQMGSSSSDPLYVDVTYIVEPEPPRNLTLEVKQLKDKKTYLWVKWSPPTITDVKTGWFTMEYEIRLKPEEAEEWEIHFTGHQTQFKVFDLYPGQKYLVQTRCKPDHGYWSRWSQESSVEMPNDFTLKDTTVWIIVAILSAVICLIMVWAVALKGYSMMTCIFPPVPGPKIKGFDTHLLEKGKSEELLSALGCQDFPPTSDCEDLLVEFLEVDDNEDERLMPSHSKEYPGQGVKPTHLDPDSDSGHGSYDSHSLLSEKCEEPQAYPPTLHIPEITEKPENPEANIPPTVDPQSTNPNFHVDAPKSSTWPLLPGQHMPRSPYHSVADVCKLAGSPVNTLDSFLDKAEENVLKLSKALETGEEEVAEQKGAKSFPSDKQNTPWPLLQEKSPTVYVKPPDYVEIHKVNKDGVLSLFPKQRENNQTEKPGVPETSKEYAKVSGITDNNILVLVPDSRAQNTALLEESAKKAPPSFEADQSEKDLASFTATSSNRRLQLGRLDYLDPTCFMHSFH
# Molecular target: T1, human PRLR (Biacore antigen)
# Experiment: SPR Biacore
row,Binder,fold decrease in affinity against chAb7
1,"Ab39 (antibody, human IgG1, kappa, V domains shown, humanized from Ab7; G1; also called Ab4 HC.1a and Ab4 LC.1a) VH: EVQLVQSGAEVKKPGSSVKVSCKASGYTFTSYWIHWVRQAPGQGLEWIGEIDPSDSYTNYNQKFKGRATLTVDKSSSTAYMELSSLRSEDTAVYYCARSFFTNWFAYWGQGTLVTVSS VL: DVVMTQTPLSLSVTPGQPASISCRSSQSLVHSNGNTYLHWYLQKPGQSPQLLIYKVSNRFSGVPDRFSGSGSGTDFTLKISRVEAEDVGVYFCSQSTHVPFTFGGGTKVEIKR",~22 fold

# Molecular target: T2, rat PRLR on Nb2-11 rat lymphoma cells
# Experiment: cell-based or functional assay
row,Binder,Nb2-11 proliferation IC50
1,"chAb7 (antibody, human IgG1, kappa, V domains shown, chimeric, murine variable and human G1/kappa constant regions) VH: QVQLQQPGAELVMPGTSVKLSCKASGYTFTSYWIHWVKQRPGQGLEWIGEIDPSDSYTNYNQKFKGKATLTVDRSSSTAYMQLSSLTSEDSAVYYCGRSFFTNWFAYWGQGTLVTVSA VL: DVVMTQTPLSLPVSLGDQASISCRSSQSLVHSNGNTYLHWYLQKPGQSPKLLIYKVSNRFSGVPDRFSGSGSGTDFTLKINRVEAEDLGVYFCSQSTHVPFTFGSGTKLEIKT",16.8 µg/mL
2,"LFA102 (antibody, human IgG1, kappa, V domains shown, humanized IgG1 kappa comparator (WO 2008022295)) VH: EVQLVESGGGLVQPGGSLRLSCAVSGFTFSSYGMSWVRQAPGKRLEWVATVSSGGTYTYYPDSVKGRFTISRDNSKNTLYLQMNSLRAEDTAMYYCARHRGNYYATYYYAMDYWGQGTLVTVSS VL: DIVLTQSPDSLAVSLGERATINCKASKSVSTSGYTYMHWYQQKPGQPPKLLIYLASNRESGVPDRFSGSGSGTDFTLTISPVQAEDVATYYCQHSGELPPSFGQGTKLEIKR",0.93 µg/mL
3,"Ab10 (antibody, V domains shown, murine monoclonal, isotype G2a; also called murine Ab10) VH: EVQLHQSGPELVKPGASVKISCKASGYTFTDYNMHWMKQSHGKSLEWIGYFYPYNGGTGYNQEFKNKATLTVDISSSTAYMELRRLTSEDSAVYYCARGGWGIYYAMDYWGQGTSVTVSS VL: DIQMTQSPASLSASVGETVTITCRASENIYSYLTWYQQKQGKSPQLLVYNAKTLAEGVPSRFSGSGSGTQFSLKINSLQPEDFGSYHCQHHSVTPLTFGAGTKLELK",> 30 µg/mL
4,"Ab6 (antibody, V domains shown, murine monoclonal, isotype G1; also called murine Ab6) VH: QVQLQQPGAELVMPGSSVKLSCKASGYTFTTYWMHWVKQRPGQGLEWIGEIDPSDSYSNYNQKFKDKATLTVDKSSSTAYMQLSSLTSEDSAVYYCARNGGLGPAWFSYWGQGTLVTVSA VL: DIVMTQSQKFMSTTVGDRVSITCKASQYVGTAVAWYQQKPGQSPKLLIYSASNRYTGVPDRFTDSGSGTDFTLTISNLQSEDLADYFCQQYSSYPWTFGGGTKLEIK",> 30 µg/mL
5,"Ab5 (antibody, V domains shown, murine monoclonal, isotype G2a; also called murine Ab5) VH: QVQLQQPGAELVRPGTSVKLSCKASGYTFTSFWMHWVKQRPGQGLEWIGVIDPSDTYTNYNQKFKGKATLTVDTSSSTAYMQLSSLTSEDSAVYYCARGDYSNWFTYWGQGTLVTVSA VL: DVVMTQTPLSLPVSLGDQASISCRSSQRLVHSNGNTYLHWYLQKPGQSPKLLIYKVSNRFSGVPDRFSGSGSGTDFTLKISRVEAEDLGVYFCSQSTHVPWTFGGGTKLEIK",0.91 µg/mL
6,"Ab7 (antibody, V domains shown, murine monoclonal, isotype G1; also called murine Ab7) VH: QVQLQQPGAELVMPGTSVKLSCKASGYTFTSYWIHWVKQRPGQGLEWIGEIDPSDSYTNYNQKFKGKATLTVDRSSSTAYMQLSSLTSEDSAVYYCGRSFFTNWFAYWGQGTLVTVSA VL: DVVMTQTPLSLPVSLGDQASISCRSSQSLVHSNGNTYLHWYLQKPGQSPKLLIYKVSNRFSGVPDRFSGSGSGTDFTLKINRVEAEDLGVYFCSQSTHVPFTFGSGTKLEIK",4.42 µg/mL
7,"Ab11 (antibody, V domains shown, murine monoclonal, isotype G1; also called murine Ab11) VH: EVKLVESGGGLVQPGGSLKLSCAASGFTFSDYYMFWVRQTPEKSLEWVAYISNGGGSTYYPDTVKGRFTISRDNAKNTLYLQMSRLKSEDTAMYYCSRQLFYYGSRGAMGYWGQGTSVTVSS VL: DVLMTQTPLSLPVSLGDQASISCRSSQSIVHSNGNTYLEWYLQKPGQSPKLLIYKVSNRFSGVPDRFSGSGSGTDFTLKISRVEAEDLGVYYCFQGSHVPFTFGSGTKLEIK",> 30 µg/mL
8,"chAb5 (antibody, human IgG1, kappa, V domains shown, chimeric, murine variable and human G1/kappa constant regions) VH: QVQLQQPGAELVRPGTSVKLSCKASGYTFTSFWMHWVKQRPGQGLEWIGVIDPSDTYTNYNQKFKGKATLTVDTSSSTAYMQLSSLTSEDSAVYYCARGDYSNWFTYWGQGTLVTVSA VL: DVVMTQTPLSLPVSLGDQASISCRSSQRLVHSNGNTYLHWYLQKPGQSPKLLIYKVSNRFSGVPDRFSGSGSGTDFTLKISRVEAEDLGVYFCSQSTHVPWTFGGGTKLEIKT",0.69 µg/mL
9,"Ab13 (antibody, V domains shown, murine monoclonal, isotype G2a; also called murine Ab13) VH: QVQLQQPGAELVRPGTSVKLSCKASGYTFTSFWMHWVKQRPGQGLEWIGVIDPSDSHTNYNQKFKGKATLTVNTSSSTAYMHLSSLTSEDSAVYYCARGDYSNWFTYWGQGTLVTVSA VL: DVVMTQTPFSLPVSLGDQASISCRSSQSLVHSNGNTYLHWYLQKPGQSPKLLIYKVSNRFSGVPDRFSGSGSGTDFTLKISRVEAEDLELYFCSQSTHVPWTFGGGTKLEIK",7.56 µg/mL

# From patent publication US20170022281A1 (AbbVie / Abbott, published 2017)
